Values belong to the molecule of their own block, whether it stands above or below them.
Columns and labels:
[1] = target: GL3^552–637, N6His- and GST-tagged recombinant protein (Arabidopsis) (UniProt Q9FN69); assay: AlphaScreen or HTRF; ALPHA competition binding, apparent Kd; 100 nM N6His-tagged and 100 nM GST-tagged copies with untagged competitor (R^ACT 0–8 μM, GL3^ACT 0–10 μM); room temperature 2 h; one-site fit
[2] = target: R^525–610, N6His- and GST-tagged recombinant protein (maize); assay: AlphaScreen or HTRF; ALPHA saturation binding, apparent Kd; N6His-tagged and GST-tagged copies, one at 100 nM (R^ACT) or 500 nM (GL3^ACT), the other 0–4 μM (R^ACT) or 0–5 μM (GL3^ACT); Nickel Chelate donor and anti-GST acceptor beads; room temperature 2 h; one-site fit
[3] = target: the molecule itself; assay: biological repeat 2
[4] = target: the molecule itself; assay: biological repeat 1
[5] = target: T1, R^525–610 A573S, N6His- and GST-tagged recombinant protein (maize); assay: biological repeat 1
T1 chain: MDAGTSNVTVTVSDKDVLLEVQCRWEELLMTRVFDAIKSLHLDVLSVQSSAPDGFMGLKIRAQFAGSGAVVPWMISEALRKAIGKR

[6] = target: T2, R^525–610 L569H, N6His- and GST-tagged recombinant protein (maize); assay: biological repeat 1
T2 chain: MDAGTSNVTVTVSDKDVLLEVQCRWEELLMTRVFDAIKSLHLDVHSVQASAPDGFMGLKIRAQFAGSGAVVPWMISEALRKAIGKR

[7] = target: R^525–610 V568S, N6His- and GST-tagged recombinant protein (maize); assay: AlphaScreen or HTRF; ALPHA saturation binding, apparent Kd; N6His-tagged and GST-tagged copies, one at 100 nM (R^ACT) or 500 nM (GL3^ACT), the other 0–4 μM (R^ACT) or 0–5 μM (GL3^ACT); Nickel Chelate donor and anti-GST acceptor beads; room temperature 2 h; one-site fit
[8] = target: T1, R^525–610 A573S, N6His- and GST-tagged …; assay: biological repeat 2
[9] = target: T2, R^525–610 L569H, N6His- and GST-tagged …; assay: biological repeat 2

Kd [1]: 1280 nM
Molecule: untagged GL3^552–637 (from UniProt Q9FN69 552-637) (domain or fragment)

Kd [2]: 100 nM
B1: R^525–610, N6His- and GST-tagged recombinant protein (domain or fragment)
chain: MDAGTSNVTVTVSDKDVLLEVQCRWEELLMTRVFDAIKSLHLDVLSVQASAPDGFMGLKIRAQFAGSGAVVPWMISEALRKAIGKR
Kd [3]: 90 nM

Kd [5]: 290 nM | Kd [6]: 340 nM | Kd [7]: 1720 nM | Kd [8]: 250 nM | Kd [9]: 310 nM
B2: R^525–610 V568S, N6His- and GST-tagged recombinant protein (domain or fragment)
chain: MDAGTSNVTVTVSDKDVLLEVQCRWEELLMTRVFDAIKSLHLDSLSVQASAPDGFMGLKIRAQFAGSGAVVPWMISEALRKAIGKR
Kd [4]: 1850 nM

— paper PMC8202348 (2021)
